The target in experiment [1] is T1, BSA conjugated to SAS1B peptide A (CGGLEETPESSFLIEGDIIRPSPFRL) (conjugated to BSA).
T1 peptide: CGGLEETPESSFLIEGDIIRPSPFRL
Kind of experiment: BLI (Octet). (Biolayer interferometry detects binding as a change in optical thickness at a sensor tip.)

The target of experiment [2] is peptide-BSA conjugate (respective antigens of the antibodies). Kind of experiment: biolayer interferometry (Octet), peptide-BSA conjugate.
Experiment [3] concerns the target T2, BSA conjugated to SAS1B peptide A (CGGLEETPESSFLIEGDIIRPSPFRL) (human, conjugated to BSA).
T2 construct: also called peptide-BSA conjugate
T2 peptide: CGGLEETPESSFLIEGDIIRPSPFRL
Described as above. Here is the method:
Protein A-Purified antibodies were subjected to binding kinetic analysis via biolayer interferometry (Fortebio's Octet instrument) and the parameters of binding to peptide-BSA conjugate were determined (FIGS. 8 and 9). […] The dissociation constants (Kdis) from these three clones were too slow to be accurately fit (<1×10⁻⁶ sec⁻¹). With the caveat that Kdis were inaccurate due to these long residency times, KDs were calculated (FIGS. 8 and 9).

In experiment [4] the target is T2, BSA conjugated to SAS1B peptide A …. Kind of experiment: colorimetric ELISA, BSA-peptide A coated, anti-mouse IgG-HRP. An excerpt:
Colorimetric ELISA data comparing binding of naked OV119 to OV119 conjugated using stochastic chemistry (OV119-WT-OM) and AJICAP site-specific conjugation (OV119-CAP-DM1). The solid phase was coated with BSA conjugated to SAS1B peptide A ([…]). Normalized concentrations of the three antibody moieties were titrated by serial 5-fold dilution. A secondary antibody specific for mouse IgG and conjugated to horse radish peroxidase was then applied. After development using TMB substrate and reaction stopping with H₂SO₄, absorbance of light at 450 nm was measured and plotted against antibody concentration (FIG. 14).
(In an ELISA, binding on a coated surface is turned into a signal by an enzyme label.)

In experiment [5] the target is T1, BSA conjugated to SAS1B peptide A …. Kind of experiment: BLI (Octet).

Where two headings read alike, the source gives them in different places. A value given as a limit tells only on which side of the number the result lay.

B1: monoclonal antibody OV123 (antibody, V domains shown)
VH: EVQLQESGPGLVKPSQSLSLTCTVTGYSITSDNAWNWIRQFPGNKLEWMGYISYSGRTSYNPSLKSRISVTRDTSKNRFFLQLNSVTTEDTATYYCARIGSYFTMDYWGQGTSVTVSS
VL: DVVMTQTPLSLSVGLGDQASISCRSSQSLVHINGSTYLHWYLQKPGQSPKLLIYKIANRFSGVPDRFSGSGSGTDFTLKISRVEAEDLGAYFCSQSTHVPLTFGAGTKLEIK
As for B1, in experiment [1], the Kd – broadly, a measure of binding affinity in units of concentration – was 0.284 nM. The koff (in general, a measure of how fast the partners let go of each other) in experiment [2] is below 1e-06 s⁻¹.

B2: monoclonal antibody OV119 (antibody, V domains shown)
VH: EVQLQESGPELVKPGASVKISCKTSGYTFTEYPMHWVKQSHGKSLEWIGGINPNNGDTTYNQRFKGKATLTVDKSSGTAYMELRSLTSEDSAVYYCVPNFDWFAYWGQGTLVTVSP
VL: DVLMTQSPLSLPVSLGDQASISCRSSQSIVHSYGNTYLEWYLQKPGQSPKLLIYKVSNRFSGVPDRFSGSGSGTDFTLRISRVEAEDLGIYYCFQGSHLPFTFGGGTKLEIK
notes: Mouse hybridoma monoclonal IgG; also called naked OV119 (unconjugated)
B2 showed a Kd in experiment [1] of 0.0343 nM. In addition, the koff in experiment [3] was below 1e-06 s⁻¹.

B3: OV119 conjugated using stochastic chemistry (OV119-WT-OM) (antibody, V domains shown)
VH: B2 VH
VL: B2 VL
modifications: drug conjugated by stochastic chemistry; sites and drug load not stated
notes: Stochastic conjugate of OV119
B3: in experiment [4], the binding result is “binds”.

B4: OV119 conjugated to DM1 using AJICAP site-specific conjugation (antibody, V domains shown)
VH: B2 VH
VL: B2 VL
modifications: DM1 on the heavy chain by AJICAP site-specific conjugation via azide intermediates, 1 or 2 DM1 molecules per heavy chain (DAR 2, 3 and 4); residue not stated
notes: Antibody-drug conjugate of mouse IgG OV119; also called OV119-DM1; OV119-CAP-DM1
In the case of B4, in experiment [4], the binding result is reported as “binds”.

B5: monoclonal antibody OV124 (antibody, V domains shown)
VH: EVQLQESGAELMKPGASVKLSCKATGSIFNKYWIDWVRQRPGHGLEWIGEILPGSGSTIYSEKFKGKATITADTSSNTAYMQLSSLTSEDSAVYYCASRALDYWGQGTTLTVSS
VL: DVVMTQTPLSLPVSLGDQASISCRSSQSLIHSNGNTYLHWYLQKPGQSPKLLIYQVSNRFSGVPDRFSGSGSGTDFTLKISRVEAEDLGVYFCSQSTHVPYTFGGGTKLEIK
Take B5: the Kd in experiment [1] turned out to be 0.115 nM. This molecule also yielded a koff in experiment [2] below 1e-06 s⁻¹.

B6: monoclonal antibody OV115 (antibody, V domains shown)
VH: DVQLQESGPGLVKPSQSLSLTCTVTGYSLTSDYAWNWIRQFPGKKVEWMGYLSYSGRTSYNPSLKSRISITRDTSRNQFFLQLNSVTTEDTATYYCARMGGNFGFDYWGQGTTLTVST
VL: GIVMTQAPLSLPVSLGDQASISCRSSQSLVHINGSTYLHWYLQKPGQSPNLLIYKVSYRFSGVPDRFSGSGSGTDFTLKITRVEAEDLGVYFCSQSTHVPLTFGSGTKLEIK
As to B6, in experiment [5], the Kd was below 0.001 nM.

B7: monoclonal antibody OV121 (antibody, V domains shown)
VH: EVQLQESGPGLVKPSQSLSLTCTVTGYSVTSDSAWNWIRQFPGNKLEWMGYISYSGSTTYNPSLKSRISITRDTSENQFFLQLRSVTTEDTATYYCARLGNLFTMDYWGQGTSVTVSA
VL: EILLTQSPVILAASPGEKVTITCSASSSLNYMNWYQQRPGSSPKIWIYGISNLASGVPARFSGSGSGTSFSFTINSMEAEDVATYYCQQRSSFPFTFGSGTKLEIK
In experiment [5], B7 showed a Kd of 0.532 nM.

Values taken from patent US20230265212A1 (OVERA, published 2023).
